Measured values from paper PMC9676401.

Assays:
[1] = biological target: GFP-tagged JNK1 (JNK1β) in pEGFP-C2; test: co-immunoprecipitation (anti-FLAG IP, anti-GFP immunoblot, densitometry); conditions: COS-7 cells, transient transfection 48 h; parent: est. 1.0; read off a plot
[2] = biological target: Full-length FLAG-tagged MKP7 C244S (catalytically inactive, substrate-trapping) (human) (UniProt Q9BY84); test: co-IP; COS-7 cells cotransfected for 48 h in 10% FBS DMEM with FLAG-MKP7 (WT or mutants) and p38α MAPK-HA, JNK1β-GFP or ERK2-HA; Pierce IP lysis buffer; immunoprecipitation with anti-FLAG M2 overnight and protein-G beads; immunoblot with anti-HA or anti-GFP; quantitation as MAPK/FLAG-MKP7
Chain of UniProt Q9BY84 (Q9BY84 whole entry C244S): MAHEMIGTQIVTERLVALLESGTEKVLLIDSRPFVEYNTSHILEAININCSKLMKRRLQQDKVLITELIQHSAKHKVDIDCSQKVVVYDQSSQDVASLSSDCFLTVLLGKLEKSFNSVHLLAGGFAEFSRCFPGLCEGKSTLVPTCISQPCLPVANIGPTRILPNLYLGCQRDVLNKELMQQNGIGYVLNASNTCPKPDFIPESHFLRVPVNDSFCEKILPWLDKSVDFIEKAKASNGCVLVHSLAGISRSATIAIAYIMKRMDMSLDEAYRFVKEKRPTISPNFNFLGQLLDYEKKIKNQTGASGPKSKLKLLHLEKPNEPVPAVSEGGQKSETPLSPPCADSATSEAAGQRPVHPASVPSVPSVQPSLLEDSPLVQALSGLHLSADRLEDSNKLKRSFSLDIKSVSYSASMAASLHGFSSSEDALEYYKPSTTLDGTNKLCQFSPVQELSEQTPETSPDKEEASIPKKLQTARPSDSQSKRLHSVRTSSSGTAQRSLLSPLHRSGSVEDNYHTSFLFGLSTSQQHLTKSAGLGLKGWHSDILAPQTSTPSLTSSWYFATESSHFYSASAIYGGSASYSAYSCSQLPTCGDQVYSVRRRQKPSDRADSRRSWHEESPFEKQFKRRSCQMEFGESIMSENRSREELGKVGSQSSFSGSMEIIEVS

Chain of GFP-tagged JNK1 (JNK1β) in pEGFP-C2 (P45983 whole entry): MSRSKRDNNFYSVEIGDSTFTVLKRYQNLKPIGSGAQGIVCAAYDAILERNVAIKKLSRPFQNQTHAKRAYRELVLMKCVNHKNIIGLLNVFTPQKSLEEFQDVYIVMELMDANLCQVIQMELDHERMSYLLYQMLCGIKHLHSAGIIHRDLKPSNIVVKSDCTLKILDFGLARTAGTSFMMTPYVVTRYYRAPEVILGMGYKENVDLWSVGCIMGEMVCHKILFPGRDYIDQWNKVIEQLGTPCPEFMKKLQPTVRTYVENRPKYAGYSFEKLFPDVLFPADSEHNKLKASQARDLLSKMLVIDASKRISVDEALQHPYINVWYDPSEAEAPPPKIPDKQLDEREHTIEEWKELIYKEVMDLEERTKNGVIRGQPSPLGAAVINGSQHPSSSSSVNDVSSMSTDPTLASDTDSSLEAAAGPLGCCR

| ratio to parent [1] | fold bound compared with WT [2] [fold] | Substance |
| --- | --- | --- |
| 0 | – | Full-length FLAG-tagged MKP7 WT (1-665 aa) (from UniProt Q9BY84) Y271S |
| 0 | – | Full-length FLAG-tagged MKP7 WT (1-665 aa) (from UniProt Q9BY84) Y271S; C244S |
| – | 3 | GFP-tagged JNK1 (JNK1β) in pEGFP-C2 (enzyme) |
